# Assay results published in patent US10813788B2, “Implantable therapeutic device” (ForSight Vision4, Inc., priority 2009, dated 2020).
# “And” between values parts separate entries of the source, which are not always exact repeats. Identical values can stand only once. Like-named read-outs stand apart in the source and are kept apart here.
# What was measured:
# [1] = Osmolarity of saline and commercial formulations (Table 1B, calculations); assay type: physicochemical; conditions: Summary of Calculations
# Description: The formulation of therapeutic agent injected into therapeutic device 100 may comprise many known formulations of therapeutic agents, and the formulation therapeutic agent comprises an osmolarity suitable for release for an extended time from device 100.
# The vitreous humor of the eye comprises an osmolarity of about 290 mOsm to about 320 mOsm. Formulations of therapeutic agent having an osmolarity from about 280 mOsm to about 340 mOsm are substantially isotonic and substantially iso-osmotic with respect to the vitreous humor of the eye. Although the formulations listed in Table 1B are substantially iso-osmotic and isotonic with respect to the vitreous of the eye and suitable for injection into the therapeutic device, the formulation of the therapeutic agent injected into the therapeutic device can be hypertonic (hyper-osmotic) or hypotonic (hypo-osmotic) with respect to the tonicity and osmolarity of the vitreous. […]
# [2] = Measured release of Lucentis through porous frit structures, Example 15B; assay type: physicochemical; conditions: 10 mg/mL Lucentis, 30 uL, 37 C
# Description: All porous frit structures are 316L SS, Mott Corporation.
# The diameter ranged from 0.031″ to 0.038″, and the length ranged from 0.029 to 0.049. The media grade ranged from 0.1 to 0.3, and the RRI ranged from 0.014 to 0.090.
# Although some of the measurements were excluded, this exclusion is appropriate and associated with in vitro testing conditions that differ substantially from the in vivo model. Five devices were excluded due to bubble growth (10%), and four were excluded due to receiver volume issues at one timepoint for that device (8%). The latter can be an experimental error associated with the volume of the receiver below the assumed value due to evaporation from inadequately sealed vials or due to pipetting error. In some instances the in vitro experimental test apparatus can be sensitive to bubble formation that may differ substantially from the in vivo model as the living eye can resorb oxygen from the therapeutic devices. Bubbles can form as receiver fluid is heated to 37° C. and gas concentrations are greater than their solubilities at 37° C. To minimize the occurrence of bubble formation, receiver solutions were degassed before insertion of the devices.
# [3] = test system: size of the lesion / retinal thickness in wet AMD (OCT); assay type: in vivo, human; conditions: for Treatment Effect Observed?: OCT decrease in size of the lesion
# Description: OCT (Optical Coherence Tomography) imaging was used to assess the condition of the region of the macula at the back surface of the treated eye. The OCT technique relies on the measurement of certain properties of light (e.g. echo time, intensity of reflection) that has been directed at the area of study and can measure very small amounts of reflected light. Because these cellular features are essentially transparent it is possible to use OCT methodology to generate three dimensional representations of the area.
# The regions of interest were analyzed with a two dimensional representation of the cross section of the retinal wall at one longitudinal scan location of the OCT image. In these “OCT scan” images is it possible to interrogate very local areas of interest more specifically. The OCT scans were carefully selected to directly compare the thickness and anatomical structure of specific sites within a lesion, pre and post treatment, for the purpose of assessing the effect of injected drug including a reduction in sub-retinal fluid.
# The OCT images were measured the day after injection and at 2-3 days post injection. […]
# [4] = Measured release of ranibizumab 40 and 100 mg/mL from devices with porous titanium frit, device half life 100 days, Example A; assay type: physicochemical; conditions: for RRI (mm), Mean: 25 uL device, titanium frit about 0.04 in thick, OD about 0.03 in; for 40 mg/mL Rate, Average / 100 mg/mL Rate, Average: devices with 100 day half life, unit not given
# Description: No. 2010/0015157, entitled “Antibody Formulations”, the full disclosure of which is incorporated herein by reference.
# Devices were fabricated using the following method. A vessel was made from two subassemblies and a porous frit structure as described herein. […] The intended RRI was about 0.02 based on gas flow measurements and manufacturing as described herein. The implantable devices were manufactured in accordance with the teachings as described herein.
# Devices were filled with formulation using a 33 G needle (TSK) and a standard tuberculin 1-cc syringe (BD). Excess liquid that had exited the porous sintered frit structure during filling was removed by use of a lab tissue and submerging in phosphate buffered saline (PBS, Sigma) and 0.02% sodium azide as a preservative. Each device was suspended in the center of a 1.5 mL microcentrifuge tube by use of a fixture. The tube was filled with 0.5 mL receiver fluid; i.e., PBS that had been degassed to minimize bubble formation. At selected times, the device was removed from the receiver fluid and placed in a new tube containing fresh receiver fluid. […] For the later time points, the sample concentrations were higher and concentration was determined by UV (Perkin Elmer Lambda 35). Drug release rates were calculated from measured concentration, the volume of the receiver fluid and the duration of the collection interval. Drug release rate profiles were plotted at the average elapsed time for each collection interval. RRI was determined via a least squares fit to the model.
# Each formulation was filled into ten devices. Some devices were stopped at 3 and 4 months (n=3 each), leaving four that underwent drug release testing for 180 days.
# [5] = Measured release of ranibizumab 100 mg/mL from devices with porous titanium frit, device half life 250 days, Example B; assay type: physicochemical; conditions: for 100 mg/mL Rate, Average: devices with 250 day half life, n = 5
# Protocol: The intended RRI was about 0.008 based on gas flow measurements and manufacturing as described herein. The therapeutic device reservoir volume was about 25 uL.
# The formulation was filled into five devices and all underwent drug release testing for 180 days.
# [6] = Measured release of ranibizumab 40 and 100 mg/mL from a population of devices, Example C; assay type: physicochemical; conditions: at 15 weeks, 25 uL, RRI 0.02
# Protocol: Therapeutic devices having stainless steel porous frit structures and formulations were prepared in accordance with Examples A and B. The devices had volumes of 25 uL and an RRI of 0.02.
# Pressure decay tests of the assembled porous frit structures were conducted as described herein.
# Eighteen devices were injected with the 100 mg/mL formulation and 18 devices were injected with the 40 mg/mL formulation. However, measurements of some devices were stopped for other assays every 4 months so only 6 devices for each formulation have release data through 180 days. The rate of release was measured for 16 weeks, and the amount release after each 2 week interval determined. […] The data indicates a measured rate of 3.5 and 8.1 ug/day at 15 weeks, for the 40 and 100 mg/mL formulation injections, respectively.
# [7] = cited from earlier work; for half-life in the vitreous: rabbit and monkey
# [8] = human eye; cited from earlier work
# [9] = test system: laser photocoagulation treatment-induced Grade IV choroidal neovascularization (CNV) lesions; conditions: intravitreal injection at all doses tested, cynomolgus monkeys; Z. Yao et al., ARVO 2009; cited from earlier work
substance,measurement,setting,value
ranibizumab [Lucentis],Osm,[1],0.289 M
same,RRI (mm),"[2]; frit 0.031 x 0.049 in, media grade 0.1 um, 2 replicates",0.014 mm
same,RRI (mm),"[2]; frit 0.031 x 0.049 in, media grade 0.2 um, 12 replicates",0.021 mm
same,RRI (mm),"[2]; frit 0.038 x 0.029 in, media grade 0.1 um, 5 replicates",0.039 mm
same,RRI (mm),"[2]; frit 0.038 x 0.029 in, media grade 0.2 um, 14 replicates",0.061 mm
same,RRI (mm),"[2]; frit 0.038 x 0.029 in, media grade 0.3 um, 6 replicates",0.090 mm
same,MIC for a sustained release device,"[3]; minimum inhibitory concentration in vivo in human patients, indicated by the low dose study",≤ 1 ug per ml
same,Treatment Effect Observed?,"[3]; single patient, lowest dose administered 10 μg intravitreal",Yes
same,Treatment Effect Observed?,"[3]; single patients, lowest dose administered 5 μg intravitreal",Yes
same,Treatment Effect Observed?,"[3]; single patients, lowest dose administered 20 μg intravitreal",Yes
same,"RRI (mm), Mean",[4]; 40 mg/mL formulation,0.02 mm and 0.024 mm
same,"RRI (mm), Mean",[4]; 100 mg/mL formulation,0.02 mm and 0.021 mm
same,"40 mg/mL Rate, Average","[4]; Day 90, n = 7",5.52
same,"100 mg/mL Rate, Average","[4]; Day 90, n = 7",9.51
same,"40 mg/mL Rate, Average","[4]; Day 180, n = 4",2.42
same,"100 mg/mL Rate, Average","[4]; Day 180, n = 4",5.13
same,"RRI (mm), Mean","[5]; 100 mg/mL formulation, 25 uL device, titanium frit 0.031 in thick, OD 0.031",0.008 mm
same,"100 mg/mL Rate, Average",[5]; Day 90,5.6 µg/day and 5.59 µg/day
same,"100 mg/mL Rate, Average",[5]; Day 180,4.51 µg/day
same,measured rate of release,[6]; 40 mg/mL formulation,3.5 µg/day
same,measured rate of release,[6]; 100 mg/mL formulation,8.1 µg/day
same,Half-life,"[7]; half-life measured for the monkey, parameter of Simulations 1-5 (Table 4A)",63.1 h
same,half-life in the vitreous,[7],two to four
same,half-life in the vitreous,[7]; listed as ranibizumab,approximately 3 days
same,half-life in the vitreous,[8],~220 h
same,development of Grade IV CNV lesions,[9],completely inhibited
